Each block holds one binder with its values, some of them ahead of it. Bridge positions count the residues as written; N and C are the ends. Square brackets hold non-standard residues; d marks the D form. His(π-Bom) = N[C@@H](Cc1cncn1COCc1ccccc1)C(=O)O; Trp(7-Me) = Cc1cccc2c(C[C@H](N)C(=O)O)c[nH]c12; 2Nal = N[C@@H](Cc1ccc2ccccc2c1)C(=O)O; AEF = NCCOc1ccc(C[C@H](N)C(=O)O)cc1; Cit = NC(=O)NCCC[C@H](N)C(=O)O; Pen = CC(C)(S)[C@H](N)C(=O)O; αMeK = C[C@](N)(CCCCN)C(=O)O; Aib = CC(C)(N)C(=O)O
Legend:
IL-23R [1] = target: T1, IL-23R (human, UniProt Q5VWK5 24-629); assay: cell-based or functional assay
T1 sequence (looked up): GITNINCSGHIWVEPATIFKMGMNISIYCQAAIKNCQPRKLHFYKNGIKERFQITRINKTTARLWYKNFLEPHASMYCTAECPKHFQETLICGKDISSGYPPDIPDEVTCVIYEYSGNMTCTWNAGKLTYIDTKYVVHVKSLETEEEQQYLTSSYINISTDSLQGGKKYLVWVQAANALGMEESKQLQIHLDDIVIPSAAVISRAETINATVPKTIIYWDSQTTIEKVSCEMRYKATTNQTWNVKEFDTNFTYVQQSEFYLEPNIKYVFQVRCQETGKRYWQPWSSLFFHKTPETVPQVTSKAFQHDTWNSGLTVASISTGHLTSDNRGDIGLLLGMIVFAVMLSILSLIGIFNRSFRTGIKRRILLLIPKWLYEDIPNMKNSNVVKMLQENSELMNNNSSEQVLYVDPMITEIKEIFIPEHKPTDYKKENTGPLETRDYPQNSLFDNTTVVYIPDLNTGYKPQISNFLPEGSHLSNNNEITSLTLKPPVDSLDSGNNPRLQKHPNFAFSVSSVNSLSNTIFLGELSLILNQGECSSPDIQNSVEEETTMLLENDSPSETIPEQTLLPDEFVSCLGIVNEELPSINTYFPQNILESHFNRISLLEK

IL-23R [2] = target: T1, IL-23R; assay: cell-based or functional assay; remark: listed apart in the source

B1: SEQ ID NO: 319 (peptide)
peptide: XNTXXXXXXKNL
modifications: Ac-[Pen]-N-T-[W(7-Me)]-[Lys(trifluoropropionic)]-[Pen]-Phe[4-(2-aminoethoxy)]-[2-Nal]-[a-MeLys]-[Lys(Ac)]-N-[(D)Leu]-NH2; Pen-Pen disulfide
pStat3 HTRF (nM) IC50 (IL-23R [1]): < 1 nM

B3: SEQ ID NO: 211 (peptide)
peptide: XNTXQXXXXKPX
modifications: Ac-[Pen]-NT-[W(7-Me)]-Q-[Pen]-Phe[4-(2-aminoethoxy)]-[2-Nal]-[a-MeLeu]-[Lys(Ac)]-P-[bA]-NH2; Pen-Pen disulfide
pStat3 HTRF (nM) IC50 (IL-23R [1]): > 100 nM

B4: SEQ ID NO: 202 (peptide)
peptide: XNTXQXXXXKNX
modifications: Ac-[Pen]-NT-[W(7-Me)]-Q-[Pen]-Phe[4-(2-aminoethoxy)]-[2-Nal]-[a-MeLys]-[Lys(Ac)]-N-[bA]-NH2; Pen-Pen disulfide
NK Cell Assay (nM) IC50 (IL-23R [2]): < 10 nM

B5: SEQ ID NO: 221 (peptide)
peptide: XNTXQXXXXKSX
modifications: Ac-[Pen]-NT-[W(7-Me)]-Q-[Pen]-Phe[4-(2-aminoethoxy)]-[2-Nal]-[a-MeLeu]-[Lys(Ac)]-S-[bA]-NH2; Pen-Pen disulfide
NK Cell Assay (nM) IC50 (IL-23R [2]): < 10 nM

B7: SEQ ID NO: 232 (peptide)
peptide: XNTXQXXXXKNX
modifications: Ac-[Pen]-NT-[W(1-Me)]-Q-[Pen]-Phe[4-(2-aminoethoxy)]-[2-Nal]-[a-MeLys]-[Lys(Ac)]-N-[bA]-NH2; Pen-Pen disulfide
NK Cell Assay (nM) IC50 (IL-23R [2]): < 10 nM

Binder: Ac-[Pen]NT[Trp(7-Me)]K(Ac)[Pen][His(π-Bom)][2Nal][αMeK]K(Ac)N[dL]-NH2 (disulfide 1-6) [SEQ ID NO: 291]
pStat3 HTRF (nM) IC50 (IL-23R [1]): > 100 nM

B8: SEQ ID NO: 277 (peptide)
peptide: XNTXQXXXXKNX
modifications: Ac-[Pen]-N-T-[W(7-Me)]-Q-[Pen]-Phe[4-(2-aminoethoxy)]-[2-Nal]-[Acbc]-[Lys(Ac)]-N-[bA]-NH2; Pen-Pen disulfide
pStat3 HTRF (nM) IC50 (IL-23R [1]): < 1 nM

B9: SEQ ID NO: 234 (peptide)
peptide: XNTXXXXXXKNX
modifications: Ac-[Pen]-NT-[W(7-Me)]-[a-MeLys]-[Pen]-Phe[4-(2-aminoethoxy)]-[2-Nal]-[a-MeLeu]-[Lys(Ac)]-N-[bA]-NH2; Pen-Pen disulfide
NK Cell Assay (nM) IC50 (IL-23R [2]): < 10 nM

B11: SEQ ID NO: 203 (peptide)
peptide: RXQTXQCXXXENX
modifications: Ac-[(D)Arg]-Abu-Q-T-[W(7-Me)]-Q-C-Phe[4-(2-aminoethoxy)]-[2-Nal]-[THP]-E-N-[bA]-NH2; Abu-Cys thioether
NK Cell Assay (nM) IC50 (IL-23R [2]): < 10 nM

B13: SEQ ID NO: 214 (peptide)
peptide: XNTXQXXXXKHX
modifications: Ac-[Pen]-NT-[W(7-Me)]-Q-[Pen]-Phe[4-(2-aminoethoxy)]-[2-Nal]-[a-MeLeu]-[Lys(Ac)]-H-[bA]-NH2; Pen-Pen disulfide
NK Cell Assay (nM) IC50 (IL-23R [2]): < 10 nM

The remaining lines, values ahead:

pStat3 HTRF (nM) IC50 (IL-23R [1]): < 1 nM
B2: SEQ ID NO: 347 (peptide)
peptide: Ac-[Pen]NT[Trp(7-Me)][Cit][Pen][AEF][2Nal][αMeK]K(Ac)N[Aib][dY]-NH2
modifications: disulfide 1-6
SMILES: CC(=O)NCCCC[C@H](NC(=O)[C@](C)(CCCCN)NC(=O)[C@H](Cc1ccc2ccccc2c1)NC(=O)[C@H](Cc1ccc(OCCN)cc1)NC(=O)[C@H]1NC(=O)[C@H](CCCNC(N)=O)NC(=O)[C@H](Cc2c[nH]c3c(C)cccc23)NC(=O)[C@H]([C@@H](C)O)NC(=O)[C@H](CC(N)=O)NC(=O)[C@@H](NC(C)=O)C(C)(C)SSC1(C)C)C(=O)N[C@@H](CC(N)=O)C(=O)NC(C)(C)C(=O)N[C@H](Cc1ccc(O)cc1)C(N)=O

pStat3 HTRF (nM) IC50 (IL-23R [1]): < 1 nM
B6: SEQ ID NO: 346 (peptide)
peptide: Ac-[Pen]NT[Trp(7-Me)][Cit][Pen][AEF][2Nal][αMeK]K(Ac)N[Aib][dF]-NH2
modifications: disulfide 1-6
SMILES: CC(=O)NCCCC[C@H](NC(=O)[C@](C)(CCCCN)NC(=O)[C@H](Cc1ccc2ccccc2c1)NC(=O)[C@H](Cc1ccc(OCCN)cc1)NC(=O)[C@H]1NC(=O)[C@H](CCCNC(N)=O)NC(=O)[C@H](Cc2c[nH]c3c(C)cccc23)NC(=O)[C@H]([C@@H](C)O)NC(=O)[C@H](CC(N)=O)NC(=O)[C@@H](NC(C)=O)C(C)(C)SSC1(C)C)C(=O)N[C@@H](CC(N)=O)C(=O)NC(C)(C)C(=O)N[C@H](Cc1ccccc1)C(N)=O

pStat3 HTRF (nM) IC50 (IL-23R [1]): < 1 nM
B10: SEQ ID NO: 320 (peptide)
peptide: XNTXXXXXXKNL
modifications: Ac-[Pen]-N-T-[W(7-Me)]-[Lys(Gly)]-[Pen]-Phe[4-(2-aminoethoxy)]-[2-Nal]-[a-MeLys]-[Lys(Ac)]-N-[(D)Leu]-NH2; Pen-Pen disulfide

pStat3 HTRF (nM) IC50 (IL-23R [1]): < 1 nM
B12: SEQ ID NO: 345 (peptide)
peptide: Ac-[Pen]NT[Trp(7-Me)][Cit][Pen][AEF][2Nal][αMeK]K(Ac)N[Aib][dR]-NH2
modifications: disulfide 1-6
SMILES: CC(=O)NCCCC[C@H](NC(=O)[C@](C)(CCCCN)NC(=O)[C@H](Cc1ccc2ccccc2c1)NC(=O)[C@H](Cc1ccc(OCCN)cc1)NC(=O)[C@H]1NC(=O)[C@H](CCCNC(N)=O)NC(=O)[C@H](Cc2c[nH]c3c(C)cccc23)NC(=O)[C@H]([C@@H](C)O)NC(=O)[C@H](CC(N)=O)NC(=O)[C@@H](NC(C)=O)C(C)(C)SSC1(C)C)C(=O)N[C@@H](CC(N)=O)C(=O)NC(C)(C)C(=O)N[C@H](CCCNC(=N)N)C(N)=O

pStat3 HTRF (nM) IC50 (IL-23R [1]): < 1 nM
B14: SEQ ID NO: 344 (peptide)
peptide: Ac-[Pen]NT[Trp(7-Me)][Cit][Pen][AEF][2Nal][αMeK]K(Ac)N[Aib][dK]-NH2
modifications: disulfide 1-6
SMILES: CC(=O)NCCCC[C@H](NC(=O)[C@](C)(CCCCN)NC(=O)[C@H](Cc1ccc2ccccc2c1)NC(=O)[C@H](Cc1ccc(OCCN)cc1)NC(=O)[C@H]1NC(=O)[C@H](CCCNC(N)=O)NC(=O)[C@H](Cc2c[nH]c3c(C)cccc23)NC(=O)[C@H]([C@@H](C)O)NC(=O)[C@H](CC(N)=O)NC(=O)[C@@H](NC(C)=O)C(C)(C)SSC1(C)C)C(=O)N[C@@H](CC(N)=O)C(=O)NC(C)(C)C(=O)N[C@H](CCCCN)C(N)=O
